Assay results as given in patent publication US6458354B1, “Molecular complexes which modify immune responses” (The Johns Hopkins University, priority 1996, dated 2002).
“And” between values parts separate entries of the source, which are not always exact repeats. Identical values can stand only once. Where no end group is shown, it is not given here.

Assays:
[1] = biological target: SIY-loaded H-2 K^bm3 (mouse); experiment: cell-based or functional assay
[2] = biological target: p2Ca-loaded H-2 L^d (mouse) (UniProt P01897); experiment: cell-based or functional assay
p2Ca-loaded H-2 L^d (mouse), sequence (P01897 25-362): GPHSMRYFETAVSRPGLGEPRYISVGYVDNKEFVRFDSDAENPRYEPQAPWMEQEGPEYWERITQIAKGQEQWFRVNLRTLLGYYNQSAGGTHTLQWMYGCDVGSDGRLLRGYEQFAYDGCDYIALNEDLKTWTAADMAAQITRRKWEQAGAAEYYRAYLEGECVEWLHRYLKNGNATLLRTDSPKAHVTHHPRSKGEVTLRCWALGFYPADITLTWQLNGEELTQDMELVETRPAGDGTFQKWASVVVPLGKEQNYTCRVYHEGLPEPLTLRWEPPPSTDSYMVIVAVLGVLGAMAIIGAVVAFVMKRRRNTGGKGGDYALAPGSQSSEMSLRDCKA

[3] = biological target: dEV-8-loaded H-2 K^bm3 (mouse); experiment: cell-based or functional assay
[4] = biological target: SIY-loaded H-2 K^b (mouse) (UniProt P01901); experiment: cell-based or functional assay
SIY-loaded H-2 K^b (mouse), sequence (P01901 22-369): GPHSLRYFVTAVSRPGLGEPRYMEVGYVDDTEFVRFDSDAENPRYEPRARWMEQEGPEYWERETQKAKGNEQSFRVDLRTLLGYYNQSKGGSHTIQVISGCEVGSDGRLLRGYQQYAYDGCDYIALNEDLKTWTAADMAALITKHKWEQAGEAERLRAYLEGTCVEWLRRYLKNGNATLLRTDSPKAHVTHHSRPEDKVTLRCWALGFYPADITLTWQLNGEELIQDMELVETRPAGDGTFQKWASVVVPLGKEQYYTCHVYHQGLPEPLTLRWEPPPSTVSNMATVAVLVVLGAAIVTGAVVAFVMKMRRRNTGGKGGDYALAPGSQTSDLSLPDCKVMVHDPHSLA

[5] = test system: 2C CTL, T2 K^b target cells; assay type: cell-based
Experimental: (§1) FIGS. 12(A-C). 2C CTL mediated lysis on various peptide/MHC targets. […] Peptide-loaded target cells were then incubated at an effector to target ratio of 10:1 and specific lysis calculated as described below. Data shown are representative of three separate experiments.
(§2) CTL Assays. Splenocytes from 2C TCR transgenic mice (Sha et al. Nature 336:73-76, 1988) were resuspended at 1.25×10^6 per ml and stimulated with 1.75×10^6 BALB/c splenocytes that had been exposed to 3,000 cGy radiation. On day 7, the 2C T cell-enriched cultures were restimulated at 5×10^5 per ml with 2.5×10^6 per ml BALB/c splenocytes. Experiments were performed on this and subsequent stimulationUs on day 4. All subsequent stimulation was performed with 3.75×10^5 per ml 2C splenocytes and 2.5×10^6 per ml BALB/c cells in the presence of IL-2 (5 units/ml).
(§3) Assays were performed in triplicate according to established CTL protocols. Briefly, target cells (2-4×10^6) were incubated with […] ^51[Cr] at 37° C. for 1 h. After three washes, cells were added to V-bottom 96 well plates (3×10^3/100 μl) and incubated (25° C. for 1.5 hour) with peptides at the indicated concentrations. 2C T cells (3×10^4/100 μl) were added to targets and plates were incubated at 37° C. for 4.5 hour. Maximum release was achieved by incubating targets with 5% Triton X 100. Percent specific lysis was calculated from raw data using [(experimental release—spontaneous release )/(maximum release—spontaneous release)]×100.

[6] = test system: 2C CTL, T2 K^bm3 target cells; assay type: cell-based
Experimental: as §1, §2, §3

[7] = test system: 2C CTL, T2 K^bm11 target cells; experiment: 2C CTL mediated lysis of peptide-loaded T2 K^bm11 targets; assay type: cell-based, mice; settings: data not shown
Experimental: as §2, §3

2C TCR = settings: read-out: Kd (μM) of 2C TCR for peptide/MHC complex; MHC restriction H-2 Ld; monovalent 2C TCR; cited from earlier work
RENCA cells = experiment: Effect of γ-IFN on endogenous peptide/H-2 L^d complexes of RENCA cells, FACS with 2C TCR/Ig or mAb 30.5.7; assay type: cell-based, murine; settings: for effect of prior incubation of RENCA cells with peptide on 2C TCR/Ig binding: saturating peptide
Experimental: FIGS. 13(A-H). Fluorescence data showing modulation of endogenous 2C specific peptide/H-2 L^d complexes on the surface of RENCA cells by γ-IFN. RENCA cells were cultured for 48 hours with 0 (FIGS. 13A and 13E), 5 (FIGS. 13B and 13F), 10 (FIGS. 13C and 13G), or 50 (FIGS. 13D and 13H) units/ml γ-IFN. […] This was accomplished by incubating RENCA cells with saturating amounts of the H-2 L^d binding peptide, MCMV, which efficiently displaced the endogenous H-2 L^d bound peptides, including any 2C-reactive peptides. […] Cells were subsequently stained with GAM-IgG-RPE and analyzed by FACS. Resultant histograms are shown. Solid lines represent histograms of cultures with no added peptide while dotted lines represent histograms from cultures incubated with pMCMV. All experiments were done in duplicate and repeated at least three times. Note the differences in the extent of fluorescence (see the scales on the histograms) upon staining with 2C-TCR/Ig vs. staining with 30.5.7.
Peptide Loading of Cells. RMA-S and T2 cell lines are defective in antigen processing and express functionally “empty” class I MHC on their cell surface. These “empty” MHC molecules can be loaded with peptides using the following protocol (25). Cells (RMA-S, RMA-S L^d, T2, T2 L^d, T2 Kb, T2 Kbm3 or T2 K^bm11) are cultured at 27° C. overnight. The following morning, cells are cultured in the presence of various antigenic peptides (100 μM final concentration) or in the absence of peptides for an additional 1.5 hours at 27° C. and then incubated for one hour at 37° C. RENCA cells were loaded with peptides by incubation with peptides (100 μM final concentration) for >2 hour at 37° C. Cells were then harvested and processed for FACS analysis as described.
To analyze this possibility and to follow the expression of endogenous 2C-reactive peptide/H-2 L^d complexes within a heterogeneous peptide/MHC environment, the influence of γ-IFN on the H-2 L^d -expressing murine cell line RENCA was studied.
RENCA cells were cultured in the presence of variable amounts of γ-IFN to induce up-regulation of naturally loaded peptide/MHC complexes. […] The effect of γ-IFN was dose dependent with a maximal 2-3 fold increase seen on cells treated with 10 units/ml of γ-IFN.

[8] = biological target: serologically reactive H-2 L^d on RENCA cells (murine) (UniProt P01897); experiment: flow cytometry on RENCA cells stimulated with 5-50 units/ml γ-IFN
serologically reactive H-2 L^d on RENCA cells (murine), sequence (P01897 25-362): as the sequence (P01897 25-362) above

[9] = biological target: serologically reactive H-2 L^d on RENCA cells (murine) (UniProt P01897); experiment: flow cytometry on unstimulated RENCA cells
[10] = biological target: SIY-loaded H-2 K^bm3 (mouse); experiment: flow cytometry on peptide-loaded T2 K^bm3 cells
[11] = biological target: pVSV-loaded H-2 K^bm3 (mouse); experiment: flow cytometry on peptide-loaded T2 K^bm3 cells
[12] = biological target: pVSV-loaded H-2 K^b (mouse) (UniProt P01901); experiment: flow cytometry on peptide-loaded T2 K^b cells
pVSV-loaded H-2 K^b (mouse), sequence (P01901 22-369): as the sequence (P01901 22-369) above

[13] = biological target: SIY-loaded H-2 K^b (mouse) (UniProt P01901); experiment: flow cytometry on peptide-loaded T2 K^b cells
[14] = biological target: SL9-loaded H-2 L^d (mouse) (UniProt P01897); experiment: direct flow cytometry on peptide-loaded RMA-S L^d cells
SL9-loaded H-2 L^d (mouse), sequence (P01897 25-309): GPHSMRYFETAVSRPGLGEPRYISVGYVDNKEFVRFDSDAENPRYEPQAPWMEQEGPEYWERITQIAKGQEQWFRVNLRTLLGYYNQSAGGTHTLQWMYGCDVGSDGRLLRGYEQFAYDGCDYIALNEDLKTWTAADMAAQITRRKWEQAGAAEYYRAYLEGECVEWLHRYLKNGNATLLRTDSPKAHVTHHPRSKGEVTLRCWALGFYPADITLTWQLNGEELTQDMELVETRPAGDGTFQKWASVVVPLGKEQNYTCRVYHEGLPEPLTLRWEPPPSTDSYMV

[15] = biological target: p2Ca-loaded H-2 L^d (mouse) (UniProt P01897); experiment: flow cytometry, serial dilutions on peptide-loaded RMA-S L^d cells, H57-FITC detection
[16] = biological target: QL9-loaded H-2 L^d (mouse) (UniProt P01897); experiment: as above
QL9-loaded H-2 L^d (mouse), sequence (P01897 25-362): as the sequence (P01897 25-362) above

[17] = biological target: QL9-loaded H-2 L^d (mouse) (UniProt P01897); experiment: direct flow cytometry on peptide-loaded L^d cells

soluble divalent 2C TCR/Ig, sequence (A2KF29 whole entry, looked up, tested part not stated): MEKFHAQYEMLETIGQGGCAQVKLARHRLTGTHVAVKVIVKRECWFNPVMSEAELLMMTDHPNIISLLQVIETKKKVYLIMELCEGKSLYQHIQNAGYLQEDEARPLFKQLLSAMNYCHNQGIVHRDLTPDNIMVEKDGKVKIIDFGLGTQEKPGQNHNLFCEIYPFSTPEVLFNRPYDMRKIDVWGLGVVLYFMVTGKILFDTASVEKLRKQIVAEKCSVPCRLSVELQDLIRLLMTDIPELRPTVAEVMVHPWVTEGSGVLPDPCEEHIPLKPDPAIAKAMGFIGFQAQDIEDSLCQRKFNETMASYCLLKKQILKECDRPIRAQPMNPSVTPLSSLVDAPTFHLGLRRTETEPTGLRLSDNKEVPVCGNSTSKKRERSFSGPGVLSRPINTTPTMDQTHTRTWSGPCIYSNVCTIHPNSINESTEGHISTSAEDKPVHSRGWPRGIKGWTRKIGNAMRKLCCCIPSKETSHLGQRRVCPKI
2C TCR on 2C CTL, sequence (A2KF29 whole entry): as the sequence (A2KF29 whole entry, looked up, tested part not stated) above

2C TCR on 2C CTL (from UniProt A2KF29)
LD50 of peptide for 2C CTL mediated lysis [1]: 100 ng/mL | LD50 of peptide for 2C CTL mediated lysis of p2Ca-loaded T2 L^d cells [2]: 0.5 ng/mL | LD50 of peptide for 2C CTL mediated lysis [3]: 0.5 ng/mL and 1 ng/mL | LD50 of peptide for 2C CTL mediated lysis [4]: 10 ng/mL

EQYKFYSV [dEV-8]
2C CTL mediated lysis of peptide loaded targets [5]: neither lysed | 2C CTL mediated lysis of peptide loaded targets [6]: efficiently lysed | 2C CTL mediated lysis of peptide loaded targets [7]: relatively poor targets

LSPFPFDL [p2Ca]
Kd (2C TCR): 0.1 to 0.5 µM

LSPFPFDLL [SL9]
Kd (2C TCR): 71 µM

QLSPFPFDL [QL9]
Kd (2C TCR): 0.066 µM | effect of prior incubation of RENCA cells with peptide on 2C TCR/Ig binding (RENCA cells): dramatic increase

SIYRYYGL [SIY]
2C CTL mediated lysis of peptide loaded targets [5]: efficient lysis | 2C CTL mediated lysis of peptide loaded targets [6]: significantly less efficient | LD50 of peptide for 2C CTL mediated lysis ([6]; T2 K^bm3 targets, effector to target ratio 10:1): ~100 ng/mL | 2C CTL mediated lysis of peptide loaded targets [7]: efficient lysis

YPHFMPTNL [pMCMV]
effect of prior incubation of RENCA cells with peptide on 2C TCR/Ig binding (RENCA cells): blocked

mAb 30.5.7 (antibody)
mean channel fluorescence (MCF) [8]: 2670 to 3040 | mean channel fluorescence (MCF) [9]: 500

soluble divalent 2C TCR/Ig (from UniProt A2KF29)
mean channel fluorescence (MCF) [10]: 36 | mean channel fluorescence (MCF) [11]: 12 | mean channel fluorescence (MCF) [12]: 14 | mean channel fluorescence (MCF) [13]: 276 | mean channel fluorescence (MCF) [14]: 100 | concentration required to detect binding [15]: 3 nM | lowest concentration tested, at which binding was detected [16]: 1 nM | mean channel fluorescence (MCF) [17]: 3000

γ-IFN: lymphokine used to up-regulate naturally loaded peptide/MHC complexes on RENCA cells
increase in serologically reactive H-2 L^d recognized by mAb 30.5.7 (RENCA cells; 5-50 units/ml γ-IFN, 48 hours): 5-6 fold | maximal increase of 2C TCR/Ig binding to RENCA cells (RENCA cells; 10 units/ml γ-IFN, 48 hours): 2-3 fold
